# Experimental data published in patent US20230365662A1.
# Positions count from the first letter of the chain named. Names may count otherwise. “And” between values parts separate entries of the source, which are not always exact repeats. Equal values may be shown once.
# B1: KB001 mouse Fab FASEBA VH S61F (Fab, V domains shown)
# VH: EVQLKQSGPGLVAPSQSLSITCTVSGFSLSIYSVHWVRQPPGKGLEWLGMIWGGGSSDYNFALKSRLSISKDNSKSQVFLKMNSLQTDDTAMYYCARNGNFYAMDYWGQGTSVTVSS
# VL: QIVLTQSPAIMSASLGERVTMTCTASSSVSSSFLHWYQQKPGSSPQLWIYSTSNLASGVPARFSGSGSGTSYSLTISSMEAEDAATYYCHQYHHSPYIYTFGGGTKLEIK
# B2: KB001 mouse Fab FASEBA VH A62L (Fab, V domains shown)
# VH: B1 VH with F61S, A62L
# VL: B1 VL
# B3: KB001 mouse Fab FASEBA VH K64V (Fab, V domains shown)
# VH: B1 VH with F61S, K64V
# VL: B1 VL
# B4: KB001 mouse Fab FASEBA VH A62N (Fab, V domains shown)
# VH: B1 VH with F61S, A62N
# VL: B1 VL
# B5: KB001 mouse Fab FASEBA VH K64M (Fab, V domains shown)
# VH: B1 VH with F61S, K64M
# VL: B1 VL
# B6: KB001 mouse Fab FASEBA VH K64Y (Fab, V domains shown)
# VH: B1 VH with F61S, K64Y
# VL: B1 VL
# B7: KB001 mouse Fab FASEBA VH L63V (Fab, V domains shown)
# VH: B1 VH with F61S, L63V
# VL: B1 VL
# B8: KB001 mouse Fab FASEBA VH A62I (Fab, V domains shown)
# VH: B1 VH with F61S, A62I
# VL: B1 VL
# B9: KB001 mouse Fab FASEBA VH S61C (Fab, V domains shown)
# VH: B1 VH with F61C
# VL: B1 VL
# B10: KB001 mouse Fab FASEBA VH A62Q (Fab, V domains shown)
# VH: B1 VH with F61S, A62Q
# VL: B1 VL
# B11: KB001 mouse Fab FASEBA VH A62D (Fab, V domains shown)
# VH: B1 VH with F61S, A62D
# VL: B1 VL
# B12: KB001 mouse Fab FASEBA VH A62E (Fab, V domains shown)
# VH: B1 VH with F61S, A62E
# VL: B1 VL
# B13: KB001 mouse Fab FASEBA VH L63F (Fab, V domains shown)
# VH: B1 VH with F61S, L63F
# VL: B1 VL
# B14: KB001 mouse Fab FASEBA VH L63M (Fab, V domains shown)
# VH: B1 VH with F61S, L63M
# VL: B1 VL
# B15: KB001 mouse Fab FASEBA VH A62V (Fab, V domains shown)
# VH: B1 VH with F61S, A62V
# VL: B1 VL
# B16: KB001 mouse Fab FASEBA VH A62G (Fab, V domains shown)
# VH: B1 VH with F61S, A62G
# VL: B1 VL
# B17: KB001 mouse Fab FASEBA VH A62H (Fab, V domains shown)
# VH: B1 VH with F61S, A62H
# VL: B1 VL
# B18: KB001 mouse Fab FASEBA VH K64H (Fab, V domains shown)
# VH: B1 VH with F61S, K64H
# VL: B1 VL
# B19: KB001 mouse Fab FASEBA VH A62F (Fab, V domains shown)
# VH: B1 VH with F61S, A62F
# VL: B1 VL
# B20: KB001 mouse Fab FASEBA VH A62R (Fab, V domains shown)
# VH: B1 VH with F61S, A62R
# VL: B1 VL
# B21: KB001 mouse Fab FASEBA VH S61L (Fab, V domains shown)
# VH: B1 VH with F61L
# VL: B1 VL
# B22: KB001 mouse Fab FASEBA VH L63Y (Fab, V domains shown)
# VH: B1 VH with F61S, L63Y
# VL: B1 VL
# B23: KB001 mouse Fab FASEBA VH S61H (Fab, V domains shown)
# VH: B1 VH with F61H
# VL: B1 VL
# B24: KB001 mouse Fab FASEBA VH S61M (Fab, V domains shown)
# VH: B1 VH with F61M
# VL: B1 VL
# B25: KB001 mouse Fab FASEBA VH A62M (Fab, V domains shown)
# VH: B1 VH with F61S, A62M
# VL: B1 VL
# B26: KB001 mouse Fab FASEBA VH K64I (Fab, V domains shown)
# VH: B1 VH with F61S, K64I
# VL: B1 VL
# B27: KB001 mouse Fab FASEBA VH S61K (Fab, V domains shown)
# VH: B1 VH with F61K
# VL: B1 VL
# B28: KB001 mouse Fab FASEBA VH K64G (Fab, V domains shown)
# VH: B1 VH with F61S, K64G
# VL: B1 VL
# B29: KB001 mouse Fab FASEBA VH L63H (Fab, V domains shown)
# VH: B1 VH with F61S, L63H
# VL: B1 VL
# B30: KB001 mouse Fab FASEBA VH K64S (Fab, V domains shown)
# VH: B1 VH with F61S, K64S
# VL: B1 VL
# Biological target: HRgpA-6H (Porphyromonas gingivalis) (UniProt P28784)
# Chain of UniProt P28784 (P28784 228-991 limits assumed): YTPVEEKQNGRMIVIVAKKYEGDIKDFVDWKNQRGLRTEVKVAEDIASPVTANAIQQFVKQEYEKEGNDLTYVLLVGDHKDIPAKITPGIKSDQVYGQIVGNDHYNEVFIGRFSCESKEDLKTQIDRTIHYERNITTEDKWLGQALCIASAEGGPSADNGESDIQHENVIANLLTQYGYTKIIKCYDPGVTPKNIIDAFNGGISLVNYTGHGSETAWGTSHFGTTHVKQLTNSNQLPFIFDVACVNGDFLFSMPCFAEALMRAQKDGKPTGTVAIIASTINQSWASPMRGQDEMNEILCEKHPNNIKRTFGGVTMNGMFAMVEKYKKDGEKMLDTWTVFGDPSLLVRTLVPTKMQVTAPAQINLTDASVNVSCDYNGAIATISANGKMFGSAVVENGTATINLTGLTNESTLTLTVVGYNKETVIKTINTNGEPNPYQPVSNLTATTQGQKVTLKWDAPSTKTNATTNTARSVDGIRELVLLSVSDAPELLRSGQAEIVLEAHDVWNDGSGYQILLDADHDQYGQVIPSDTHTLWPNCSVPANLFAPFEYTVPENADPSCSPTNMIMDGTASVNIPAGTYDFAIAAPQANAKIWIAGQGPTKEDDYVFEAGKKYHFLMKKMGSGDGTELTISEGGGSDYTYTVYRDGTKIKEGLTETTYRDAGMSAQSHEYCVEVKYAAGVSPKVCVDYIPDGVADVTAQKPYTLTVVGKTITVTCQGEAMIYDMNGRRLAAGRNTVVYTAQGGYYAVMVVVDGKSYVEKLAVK
# Assay: ELISA on coated HRgpA-6H
Binder,OD450nm,Ratio OD(Variant)/OD(WT)
B1,0.432 and 0.473,0.875 and 0.958
B2,0.812,0.929
B3,0.715 and 0.714,0.865 and 0.863
B4,0.721 and 0.799,0.825 and 0.914
B5,0.799 and 0.757 and 0.78,0.966 and 0.915 and 0.943
B6,0.763,0.923
B7,0.784 and 0.77 and 0.778,0.897 and 0.881 and 0.89
B8,0.702 and 0.808,0.803 and 0.924
B9,0.431,0.873
B10,0.737 and 0.869,0.843 and 0.994
B11,0.853 and 0.851,0.976 and 0.974
B12,0.854,0.977
B13,0.743,0.85
B14,0.8,0.915
B15,0.742 and 0.757,0.849 and 0.866
B16,0.813 and 0.785,0.93 and 0.898
B17,0.819 and 0.834 and 0.844,0.937 and 0.954 and 0.966
B18,0.752,0.909
B19,0.843 and 0.733,0.965 and 0.839
B20,0.733 and 0.847 and 0.809,0.839 and 0.969 and 0.926
B21,0.448,0.908
B22,0.836 and 0.846 and 0.801,0.957 and 0.968 and 0.916
B23,0.469,0.95
B24,0.493 and 0.479,0.999 and 0.971
B25,0.77 and 0.735,0.881 and 0.841
B26,0.743 and 0.756 and 0.715,0.898 and 0.914 and 0.865
B27,0.49,0.993
B28,0.806,0.975
B29,0.818 and 0.843 and 0.822,0.936 and 0.965 and 0.941
B30,0.808,0.977
